In the nanobody polyreactivity screen of Harvey et al. (2022):

Experiment: yeast display, Sf9 membrane polyspecificity reagent, FACS + sequencing; frameworks hold sequencing errors
Method in brief: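 Nanobodies from a synthetic yeast display library (Saccharomyces cerevisiae BJ5465), induced 36–48 hours with galactose, were stained 1 hour at 4 °C with 10% biotinylated, detergent-solubilized Sf9 membrane reagent, enriched on streptavidin microbeads, then FACS-sorted. Anti-HA (expression) and streptavidin (reagent binding) fluorescence set low and high (top ~1%) gates. Polyreactivity labels come from the gate of origin. Genes were colony-PCR amplified, MiSeq 2 × 250 sequenced and filtered by CDR length.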

Sequence	polyreactivity (PSR sort gate)
QVQLVESGGGLVQAGGSLRLSCAASGRIFYRYAMGWYRQAPGKERELVAAITYSGGSTYYADSVKGRFTISRDNAKNTVYLQMNSLKPEDTAVYYCAAGGRGRPTTPPYGWYKLNYWGQGTQVTVSS	high polyreactivity
QVQLVESGGGLVQAGGSLRLSCAASGSTFTPNAMGWYRQAPGKERELVAASRYTGVGTYYADSVKGRFTISRDNAKNTVYLQMNSPKPEDTAVYYCNRVSRYYNYDYWGQGTQVTVSS	high polyreactivity
QVQVVESGGGLVQAGGSLRLSCAASGSTCYFNAMGWYRQAPGTERELVAAIEWSGGSTYYADSVKGRFTISRDNAKNTVYLQMTSLKPEDTAVYYCNRRDVIFLTGPPQYIFPTYDYWGQGTQVTVSS	low polyreactivity
QVQLVESGGGLVQAGGSLRLSCAASGSTFGYYTMGWYRQAPGKERELVAAITGGGTTYYADSVKGRFTISRDNAKNTVYLQMNSLKPEDYAVYYCAAQARYYWGTTYEYWGQGTQVTVSS	high polyreactivity
QVQLVESGGGLVQAGGSIRLSCAASGSTFKTYVMGWYRQAPGKERELVAAISFSDGTTYYADSVKGRFTISRDNAKNTVYLQMNSLKPEDTAVYYCAAEGYQSQYDYWGQGTQVTVSS	high polyreactivity
QVQLVESGGGLVLAGGSLRLTWAASGSIFHYYAMGWYRQAPGKERELVAAISWSGGRTYYADSVKGRFTISRDNAKNTVYLEMNSLKPEDTAVYFCAADTYPYIGGYYWGQGTQVTVSS	high polyreactivity
QVQLVESGGGLVQAGGSLRLSCAASGLIFRYYAMGVYRQAPGHERELVAALTSTGRTYYADSVKGRFTISRDNAKNTVYVQMNSLKPEDTAVYYCNTDQFADYHTDFWSDYEYWGQGTQVTVSS	low polyreactivity
QVQLVESGGGLVQAGGSLRLSCAASGNTIDRYDMGWYRQPPGKEREFVAAITASAGSTYADSVKGRFTISRDNAKNTVYLQMNSLKPEDSAVYYCNAGNSSTGVDRYDYWGQGTQVTVSS	low polyreactivity
QVQLVESGGGLVQAGGSLRLSCAASGSIFYYNVMGWYRQAPGKERELVAAISQSGVRTYYADSVKGRFTISRDNAKNTVYLQMNSLKPEDTAVYYCAAKARRLYASSYDYWGQGTQVTVSS	high polyreactivity
QVQLVESGGGLVQAGGSLRLSCAASGSTFWSYAMGWYRQAPGKEREFVAAISSSDDSTYYADSVKGRFTISRDNAKNTVYLQMNSMKPEDTAVYYCATSWYIYPYDYWGQGTQVTVSS	low polyreactivity
QVQLVESGGGLVQAGGSLRLSCAASGRIFYYNAMGWYRQAPGKERELVAAINYRGGSTYYADSVKGRFTISRDNAKNTVYLQMNSLKPEDTAVYYCAARYWEDGSTYDYWGQGTQVTVSS	high polyreactivity
QVQLVESGGGLVQARGSLRLSCAASGFTFPQYAMAWYRQAPGKERELVAVISWSGSSTYYADSVKGRFTISRDNAKNTVYLQMNSLKPEDTAVDYCNTRKLYQVDYDYWGQGTQVTVSS	high polyreactivity
QVQLVESGGGLVQAGGSLRLSCAASGRTFYPYGMGWYRQAPGKERELVATITTGGSTNYADSVKGRFTISRDNAKTTVYLQMNSLKPEDTAVYYCAAKTRIRYYSWGQGTQVTVSS	low polyreactivity
QAQLQESGGSLVQAGGGLRLSCAASGYISVGSVMGWYRQAPSKERELVASIDQGANTNYADSVKGRFTISRNNAKNNVYLQMNSLKTEDTAVYYCATETTYILNYCGQGTQVTVSS	low polyreactivity
QVQLVESGGGLVQAGGSLRLSCAASGSTFDVYAMGWYRQAPGKERELVAVINTSGTRTYYADSVKGRFTISRDNAKNTVYLQMNSLKPEDTAVYYCNAGGHLEMNYWGQGTEVTVSS	low polyreactivity
QVQLVESGGGLVQAGGSLRLSCAASGFTFRRYDMGWYRQAPGKERELVATINRGGSTDYADSVKGRFTISRDNAKNTVYLQMNSLKPEDNAVYYCAADSYSTCADDYWGQGTQVTVSS	high polyreactivity
QVQLVESGGGLVQAGGSLRLSCAASGRTCGYYAMGWYRQAPGKEREFVAVITWSGDSTYYADSVKGRFTISRDNAKNTVYLQMNSLKPEDTAVYNGNADSGNAGTAYDDYDYSGQGTQVTVSS	low polyreactivity
QVQLVESGGGLVQAGGSLRLSCAASGFTFGINAMGWSRQAPGKERELVASISSGSSTTYADSVKGRFTISRDNAKNTVYLQMNRLKPEDTAVYYCNARPFHIYWRYDYWGQGTQVTVSS	low polyreactivity
QVQLVESGGGLVQAGGSLRLSCAASGSLYFAYAMGWYRQAPGKEREFVAAISASGGSTSYADSVKGRFTISRDNAKNTVYLQMNSLKPEDTAVYYCATEHRVTTYDYWGQGTQVTVSS	low polyreactivity
QVQLVVSGGGLVQAGGSLRLSCAASGRIFLWNAMGWYRQAPGKERDLVAAISSGGGTNYADSVKGRFTISRDNAKNSVYLQMNSLKPEDTAVYYCAARRTYRFGWGQGTQVTVSS	high polyreactivity
QVQLVESGGGLVQAGGSLRLSCAASGFTFWRNVMGWYRQAPGKERELVAVISRGGSTNYADSVKGRFTISRDNAKNTVYLKMNSLIPEDTAVYYFAKYARGPSKVDYWGQGTQVTVSS	high polyreactivity
QVQLVESGGGLVQAGASLRLCCAASGRILRRYAMGWYRQAPGKEWELVAAITARTGSTYYADSVKGRFTISRDTAKYTVYLQMNSLKPEDTAVYYCNAVNELTGGVIFNYWGQGTQVTVSS	high polyreactivity

Sequence	polyreactivity (PSR sort gate)
QVHLVESAVRLVQAGGSLRLSCAAPGFTFFSNARGWYRQAHGKERELFASITNDGSTYADSVKGRFTISRDNAMNTVYLQMTSLKPEDTAVYYCAARVPQWRYSRRTRERFDFWGQGTQVTVSS	low polyreactivity
QVQLVESGGGLDQAGGSLRLSCAASGSIIWYYAMGWYRQAPGKESELVASISRRGGSTYYADSVKGRFTISRDNAKYTVYLQMNSLKPEDTAVYYCAAYSRTTGSTVQGTYDYWGQGTQVSVSS	low polyreactivity
QVQHVVSVGGLVQAGGSLRLSCAASGSTFLLNTMGWYRQAPGKERELVAAISSITGDTYYADSVKGRFTISRDNAKNTVYLQMNSLKPEDTAVYYCAAYLSETRPYLYDYWGLGTQVTVSS	low polyreactivity
QVQLVESGGGLVQAGGSLRLSCAASGPIYTYAMGWYRHAPGKERELVAAISRRGGSTYYADSVKGRFTISRDNAKNTVYLQMNSLKPEDTAVYYCAKERSFGDGNFDYEYWGQGTQVTVSS	high polyreactivity
QVQIVESGGRLVQAAGRLSLTCAASGSIFVWNAMGWYRQEPGKEREVVAAITNIGGRTYYADSVKGRFTISRDNAKYTVYLQMNSQKPEATAGYYCNSDLVSRLGWSTTSDSWGQGTQVTVSS	high polyreactivity
QVQLVESGGGLLQAGGSRRLSCAASGRTFYSYGMGWYRRAPGKERELVARNTWSGGTYYADSVKGRFTISRDNAKNTVYLQMNSLKPEDTAVYYCAKRSYYWEYYYWGQGTQVTVSA	high polyreactivity
QVQLVESGGGLVQAGGSLSLSCAASGSIFFYAMGGYRPAPGKERELVADITYTGGSKYADSVKGRFTISRDNAKYTVYLQMNSLKPEDTAVYSCAKLDGGLFDYWGHGTQVTVSS	low polyreactivity
QVQLEESGGGLVQAGGSLRLSCPASGITFYRYVMGWNRQAPGKERELDAAINWSTGTTNYADSVKGRFTISRDNAKNTVYLQMNSLKPEDTAVYYCNARYRLRFIYSLRYDYWGQGTQVTVSS	high polyreactivity
QVQLVESGGGLVQAGGSLRLSCAASGSIFYDNAMGWYRQAPGKERELVAAIDDSDRTYYADSEKGRFTISRDNAKNTVYLQMNSLKPEDTAVYYCARDRWKWHYGYDYWGQGTQVTVSS	low polyreactivity
QVQLVESGGGLVQAGGSLRLSCAASGFIFVQNVMGWYRQAPGKERELVAAITWRGTSTYYADSVKGRFTISRDNAKNTVYLLMNSLKPEDTAVYDWNVDLQEDCEEYDYWGQGTQVTVSS	low polyreactivity
QVQLVESGGGLVQAGGSLRLSCAASGSIFGTYAMGWYRQAPGKERELVAAITGSGGRTYYADSVKGRFTISRDNAKNTVYLQMNSLKPEDTAVYYCNKVVYVRSYPPRYDYWGQGTQVSVSS	high polyreactivity
QVQLVESGGGLVKAGGSLRLTCAASGSIFKIYSMGWYIQAPGKERELVATITWSTGTTYYADSVKGRFTISRDNAKNTVFLQMNSLKPEDTAVYYCATEPSWYHGFIDPRGYWGQATQVTVSS	low polyreactivity
QVQLVESGGGLVQAGGSLRLSCAASGRTFYAYDMGWYRQAPGKERELVAAINSGDRTNYADSVKGRFTISRDNAKNTDYLQMNSLKPEDTAVYYCAADWYTPQGVGLDYWGQGTQVTVSS	low polyreactivity
QVQLVESGGGLVQAGGSLRLSCAASGFIFPQYAMGWYRQAPGKERELVAAISTGGGSTYYADSVKGRFTISRDNAKNTVYLQMNSLKPEDTAVYYCAKYVYRFARYNLDYWGQGTQVTVSS	high polyreactivity
QVQLVESGGGLVQAGGSLRLSCAASGSIIVYYGMGWYRQAPGKERELVAAISSGGSTHYADSVKGRFTISRDNAKNSVYLQMNSVKPEDTAVYYCAADRFFWLRSYPRYYYWGQGTQVTVSS	low polyreactivity
QVQLQESGGGPVLAGGSLRLSCAASGTIFVRLDMGWYRQAPGKEREFVATIGSGSSTYYADSVKGSFTISRDNVKNPVYLQMNSLKPEDTAVYYCAVSAAEQSRHYYWDQGTQVTVSS	low polyreactivity
QVQLVESGGGLVQAGGSLRLSCAASGSTFQVYGMGWYRQAPGKERELVAAISRSGGRTYYADSVKGRFTISRDNAKNTVYLQMNSLKPEDTAVYYCAKTYQTTTSKSGYYYWGQGTQVTVSS	high polyreactivity
QVQLVESGGGLVQAGGSLRLSCAASGSTFESYAMGWYRQAPGKERELVAAISQNGGSTYYADSVKGRFTISRDNAKNTVYLQMNSLKPEDTAVYYCNADVYPYYRKPWMDYWGQGPQVTVSS	low polyreactivity
QDQLVESGGGLVQAGGSLRLSCAASGSTFYRYAMGRSRQAPGTERELVAAISWRGGSTYYADSVKGRFTISRDNAKNSVYLQMNSLKPEDTAVYYCNADWYPYDQMYYWGQGTQVTVSS	low polyreactivity
QVQPVESGGGLVQAGGSLRLSCAASGFIFSSYAMGWYRQAPGKERELVAAITSGGSTNYADSVKGRFTISRDNAKNTVYLQMNSMKPEDTAVYYCATVPGGSWFFHWWSTGGDDEYWGQGTQVTVSS	low polyreactivity
QVQLVESGGGLVQAGGSLRLSCAACGSTFSPNAMGWYRQAPGKERELVAAISGSGASTYYADSVKGRFTISRDNAKNTVYLQMNSLKPEDTAVYYCAADKPGIFSRFDYWGQGTQVTVSS	low polyreactivity
